According to the supplement of paper PMC10201428:
± gives the standard deviation of the averaged measurements.

What was measured:
[1] = test system: VchCAST RNA-guided transposition machinery (E. coli BL21(DE3) host, lacZ target); assay: relative integration efficiency (T-LR orientation) vs wild-type transposon end (log2 (normalized fold change)); transposon end mutated: right end (5 bp flank + 75 bp right end); higher = more efficient transposition
How it was run: (§1)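 In E. coli BL21(DE3), a T7-driven effector plasmid was paired with a pUC57 mini-transposon donor containing 1549 left-end or 1849 right-end barcoded transposon variants. Cells grew on plates with 0.1 mM IPTG at 37°C for 18 h. Relative integration efficiency was derived from Illumina reads of genomic integration junctions against input plasmids, as a log-transformed output/input barcode fold change normalised to reference barcodes.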

[2] = test system: VchCAST RNA-guided transposition machinery (E. coli BL21(DE3) host, lacZ target); assay: relative integration efficiency (T-RL orientation) vs wild-type transposon end (log2 (normalized fold change)); transposon end mutated: right end (5 bp flank + 75 bp right end); higher = more efficient transposition
How it was run: as §1

## ACATTTGTTGATACAACCATATATTGATATCTCCACCCATAAATTGATATTGCTCACAACCATAAAATGATAATTACTCTGATCATAGTCAGACCAACATTGCTACGACCCGTATTCGCACCGACAC
[1]
  relative integration efficiency (log2): -0.381 ± 0.46
[2]
  relative integration efficiency (log2): -0.537 ± 0.12

## ACATTTGTTGATACAACCATATATTGATATCTCCACCCATAAATTGATATTGCTCACAACCATAAAGTGATATTTACTCTGATCATAGTCAGACCAACATTGCTACGACCCGTATTCGCACCGACAC
[1]
  relative integration efficiency (log2): -0.202 ± 0.54
[2]
  relative integration efficiency (log2): -0.6 ± 0.069

## ACATTTGTTGATACAACCATATATTGATATCTCCACCCATAAATTGATATTGCTCACAACCATAAGTTGATATTTTCTCTGATCATAGTCAGACCAACATTGCTACGACCCGTATTCGCACCGACAC
[1]
  relative integration efficiency (log2): 0.281 ± 0.01
[2]
  relative integration efficiency (log2): -0.57247 ± 9.5e-05

## ACATTTGTTGATACAACCATATATTGATATCTCCACCCATAAATTGATATTGCTCACAACCATATATTGATATCTCCTCTGATCATAGTCAGACCAACATTGCTACGACCCGTATTCGCACCGACAC
[1]
  relative integration efficiency (log2): 0.439 ± 0.28
[2]
  relative integration efficiency (log2): -0.713 ± 0.056

## ACATTTGTTGATACAACCATATATTGATATCTCCACCCATAAATTGATATTGCTCACACCCATAAATTGATAATTACTCTGATCATAGTCAGACCAACATTGCTACGACCCGTATTCGCACCGACAC
[1]
  relative integration efficiency (log2): 0.429 ± 0.13
[2]
  relative integration efficiency (log2): -0.617 ± 0.12

## ACATTTGTTGATACAACCATATATTGATATCTCCACCCATAAATTGATATTGCTCACACCCATAAATTGATATTGCCTCTGATCATAGTCAGACCAACATTGCTACGACCCGTATTCGCACCGACAC
[1]
  relative integration efficiency (log2): 0.466 ± 0.081
[2]
  relative integration efficiency (log2): -0.524 ± 0.027

## ACATTTGTTGATACAACCATATATTGATATCTCCACCCATAAATTGATATTGCTCAGTGGGTATTTAACTATAACGCTCTGATCATAGTCAGACCAACATTGCTACGACCCGTATTCGCACCGACAC
[1]
  relative integration efficiency (log2): 2.32 ± 0.041
[2]
  relative integration efficiency (log2): -1.2 ± 0.17

## ACATTTGTTGATACAACCATATTATGATAATTACACCCATAAATTGATAATTATCACACCCATAAATTGATATTGCCTCTGATCATAGTCAGACCAACATTGCTACGACCCGTATTCGCACCGACAC
[1]
  relative integration efficiency (log2): -0.476 ± 0.63
[2]
  relative integration efficiency (log2): -0.2975 ± 0.0027

## ACATTTGTTGATACAACCATATTATGATAATTACACCCATATTTTGATAATTATCACACCCATATTTTGATATTGCCTCTGATCATAGTCAGACCAACATTGCTACGACCCGTATTCGCACCGACAC
[1]
  relative integration efficiency (log2): -0.471 ± 0.23
[2]
  relative integration efficiency (log2): -0.5763 ± 0.0022

## ACATTTGTTGATACAACCATATTTAGATAATTACACCCATAAATTGATAATTATCACACCCATAAATTGATATTGCCTCTGATCATAGTCAGACCAACATTGCTACGACCCGTATTCGCACCGACAC
[1]
  relative integration efficiency (log2): -0.623 ± 0.22
[2]
  relative integration efficiency (log2): -0.585 ± 0.14

## ACATTTGTTGATACAACCATATTTAGATAATTACACCCATATTAAGATAATTATCACACCCATATTAAGATATTGCCTCTGATCATAGTCAGACCAACATTGCTACGACCCGTATTCGCACCGACAC
[1]
  relative integration efficiency (log2): -1.1 ± 0.36
[2]
  relative integration efficiency (log2): -2.27 ± 0.31

## ACATTTGTTGATACAACCATATTTTGATAATTACACCCATATTATGATAATTATCACACCCATATTATGATATTGCCTCTGATCATAGTCAGACCAACATTGCTACGACCCGTATTCGCACCGACAC
[1]
  relative integration efficiency (log2): -0.241 ± 0.0091
[2]
  relative integration efficiency (log2): -0.721 ± 0.17

## ACATTTGTTGATACAACCATCAAATGATAATTACACCCATACATTGATAATTATCACACCCAATTTAACTATAACGCTCTGATCATAGTCAGACCAACATTGCTACGACCCGTATTCGCACCGACAC
[1]
  relative integration efficiency (log2): -0.0308 ± 0.27
[2]
  relative integration efficiency (log2): -2.9 ± 0.42

## ACATTTGTTGATACAACCATCAAATGATAATTACACCCATCAATTGATAATTATCACACCCATCAATTGATATTGCCTCTGATCATAGTCAGACCAACATTGCTACGACCCGTATTCGCACCGACAC
[1]
  relative integration efficiency (log2): -1.14 ± 0.11
[2]
  relative integration efficiency (log2): -1.73 ± 0.26

## ACATTTGTTGATACAACCATCAAATGATAATTACACCCCTAAATTGATAATTATCACACCCAATTTAACTATAACGCTCTGATCATAGTCAGACCAACATTGCTACGACCCGTATTCGCACCGACAC
[1]
  relative integration efficiency (log2): -0.622 ± 0.093
[2]
  relative integration efficiency (log2): -3.41 ± 0.3

## ACATTTGTTGATACAACCATCAAATGATAATTACACCCCTACATTGATAATTATCACACCCAATTTAACTATAACGCTCTGATCATAGTCAGACCAACATTGCTACGACCCGTATTCGCACCGACAC
[1]
  relative integration efficiency (log2): -1.57 ± 0.21
[2]
  relative integration efficiency (log2): -4.12 ± 0.053

## ACATTTGTTGATACAACCATCAAATGATAATTCCACCCATAAATTGATAATTATCACACCCAATTTAACTATAACGCTCTGATCATAGTCAGACCAACATTGCTACGACCCGTATTCGCACCGACAC
[1]
  relative integration efficiency (log2): 1.44 ± 0.11
[2]
  relative integration efficiency (log2): -1.53 ± 0.19

## ACATTTGTTGATACAACCATCAAATGATAATTCCACCCATACATTGATAATTATCACACCCAATTTAACTATAACGCTCTGATCATAGTCAGACCAACATTGCTACGACCCGTATTCGCACCGACAC
[1]
  relative integration efficiency (log2): -0.154 ± 0.093
[2]
  relative integration efficiency (log2): -3.05 ± 0.042

## ACATTTGTTGATACAACCATCAAATGATAATTCCACCCCTAAATTGATAATTATCACACCCAATTTAACTATAACGCTCTGATCATAGTCAGACCAACATTGCTACGACCCGTATTCGCACCGACAC
[1]
  relative integration efficiency (log2): -1.01 ± 0.31
[2]
  relative integration efficiency (log2): -3.65 ± 0.074

## ACATTTGTTGATACAACCATCAAATGATAATTCCACCCCTACATTGATAATTATCACACCCAATTTAACTATAACGCTCTGATCATAGTCAGACCAACATTGCTACGACCCGTATTCGCACCGACAC
[1]
  relative integration efficiency (log2): -0.8 ± 0.15
[2]
  relative integration efficiency (log2): -4.18 ± 0.17

## ACATTTGTTGATACAACCATCAAATGGTAATTACACCCATAAATTGATAATTATCACACCCAATTTAACTATAACGCTCTGATCATAGTCAGACCAACATTGCTACGACCCGTATTCGCACCGACAC
[1]
  relative integration efficiency (log2): 2.24 ± 0.09
[2]
  relative integration efficiency (log2): -0.349 ± 0.42

## ACATTTGTTGATACAACCATCAAATGGTAATTACACCCATACATTGATAATTATCACACCCAATTTAACTATAACGCTCTGATCATAGTCAGACCAACATTGCTACGACCCGTATTCGCACCGACAC
[1]
  relative integration efficiency (log2): -1.54 ± 0.61
[2]
  relative integration efficiency (log2): -4.04 ± 0.11

## ACATTTGTTGATACAACCATCAAATGGTAATTACACCCCTAAATTGATAATTATCACACCCAATTTAACTATAACGCTCTGATCATAGTCAGACCAACATTGCTACGACCCGTATTCGCACCGACAC
[1]
  relative integration efficiency (log2): -2.01 ± 0.77
[2]
  relative integration efficiency (log2): -4.79 ± 0.36

## ACATTTGTTGATACAACCATCAAATGGTAATTACACCCCTACATTGATAATTATCACACCCAATTTAACTATAACGCTCTGATCATAGTCAGACCAACATTGCTACGACCCGTATTCGCACCGACAC
[1]
  relative integration efficiency (log2): -3.18 ± 1.1
[2]
  relative integration efficiency (log2): -5.5 ± 0.092

## ACATTTGTTGATACAACCATCAAATGGTAATTCCACCCATAAATTGATAATTATCACACCCAATTTAACTATAACGCTCTGATCATAGTCAGACCAACATTGCTACGACCCGTATTCGCACCGACAC
[1]
  relative integration efficiency (log2): 0.505 ± 0.11
[2]
  relative integration efficiency (log2): -2.06 ± 0.2

## ACATTTGTTGATACAACCATCAAATGGTAATTCCACCCATACATTGATAATTATCACACCCAATTTAACTATAACGCTCTGATCATAGTCAGACCAACATTGCTACGACCCGTATTCGCACCGACAC
[1]
  relative integration efficiency (log2): -2.28 ± 0.36
[2]
  relative integration efficiency (log2): -4.83 ± 0.15

## ACATTTGTTGATACAACCATCAAATGGTAATTCCACCCCTAAATTGATAATTATCACACCCAATTTAACTATAACGCTCTGATCATAGTCAGACCAACATTGCTACGACCCGTATTCGCACCGACAC
[1]
  relative integration efficiency (log2): -2.59 ± 0.29
[2]
  relative integration efficiency (log2): -5.34 ± 0.16
